Test system: Escherichia coli TOP10
Assay: shrunken log2 fold change of peptide-encoding DNA abundance (4.5 h post-induction vs induction); higher = less antimicrobial activity (less host growth inhibition)
Conditions: time post-induction: 4.5 h; library: site-saturation at positions 5, 18, 19, 20
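Note: peptides expressed intracellularly from a pBAD plasmid library in pooled LB shake-flask culture, induced with 0.3% L-arabinose, DNA abundance read by NGS, three biological replicates, DESeq2 with apeglm shrinkage.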

Row | Sequence | shrunken log2 fold change
1 | RRIRPRPPRLPRPRPRPHRLPRP | -0.0226
2 | RRIRPRPPRLPRPRPRPHRPPRP | 0.0359
3 | RRIRPRPPRLPRPRPRPHTMPRP | -0.143
4 | RRIRPRPPRLPRPRPRPHVGPRP | -0.0279
5 | RRIRPRPPRLPRPRPRPHVHPRP | -0.254
6 | RRIRPRPPRLPRPRPRPHVIPRP | -0.617
7 | RRIRPRPPRLPRPRPRPHWGPRP | 0.0167
8 | RRIRPRPPRLPRPRPRPHYGPRP | -0.569
9 | RRIRPRPPRLPRPRPRPHYPPRP | -0.0221
10 | RRIRPRPPRLPRPRPRPIACPRP | 0.0852
11 | RRIRPRPPRLPRPRPRPICMPRP | -0.343
12 | RRIRPRPPRLPRPRPRPIFEPRP | 0.154
13 | RRIRPRPPRLPRPRPRPIHEPRP | 0.152
14 | RRIRPRPPRLPRPRPRPIIVPRP | -0.178
15 | RRIRPRPPRLPRPRPRPIKVPRP | -0.468
16 | RRIRPRPPRLPRPRPRPIKYPRP | 0.32
17 | RRIRPRPPRLPRPRPRPINDPRP | -0.178
18 | RRIRPRPPRLPRPRPRPIPCPRP | -0.172
19 | RRIRPRPPRLPRPRPRPIPQPRP | -0.321
20 | RRIRPRPPRLPRPRPRPIRPPRP | 0.184
21 | RRIRPRPPRLPRPRPRPIRSPRP | 0.00396
22 | RRIRPRPPRLPRPRPRPITHPRP | -0.117

Row | Sequence | shrunken log2 fold change
23 | RRIRPRPPRLPRPRPRPITIPRP | -0.197
24 | RRIRPRPPRLPRPRPRPITWPRP | -0.0578
25 | RRIRPRPPRLPRPRPRPIVWPRP | 0.0606
26 | RRIRPRPPRLPRPRPRPIYMPRP | -0.306
27 | RRIRPRPPRLPRPRPRPIYRPRP | -0.158
28 | RRIRPRPPRLPRPRPRPIYTPRP | -0.245
29 | RRIRPRPPRLPRPRPRPKADPRP | 0.0968
30 | RRIRPRPPRLPRPRPRPKCMPRP | -0.222
31 | RRIRPRPPRLPRPRPRPKCPPRP | 0.131
32 | RRIRPRPPRLPRPRPRPKEVPRP | -0.0501
33 | RRIRPRPPRLPRPRPRPKFCPRP | 0.189
34 | RRIRPRPPRLPRPRPRPKGAPRP | 0.21
35 | RRIRPRPPRLPRPRPRPKGFPRP | 0.0275
36 | RRIRPRPPRLPRPRPRPKGGPRP | 1.33
37 | RRIRPRPPRLPRPRPRPKGWPRP | 1.22
38 | RRIRPRPPRLPRPRPRPKHDPRP | -0.0113
39 | RRIRPRPPRLPRPRPRPKICPRP | -0.0701
40 | RRIRPRPPRLPRPRPRPKIYPRP | -0.000172
41 | RRIRPRPPRLPRPRPRPKKHPRP | -0.0812
42 | RRIRPRPPRLPRPRPRPKKSPRP | 0.085
43 | RRIRPRPPRLPRPRPRPKLFPRP | 0.18
44 | RRIRPRPPRLPRPRPRPKNHPRP | -0.282

Row | Sequence | shrunken log2 fold change
45 | RRIRPRPPRLPRPRPRPKPYPRP | -0.0782
46 | RRIRPRPPRLPRPRPRPKQVPRP | -0.0541
47 | RRIRPRPPRLPRPRPRPKSEPRP | 0.197
48 | RRIRPRPPRLPRPRPRPKSNPRP | -0.37
49 | RRIRPRPPRLPRPRPRPKWCPRP | 0.0741
50 | RRIRPRPPRLPRPRPRPKWLPRP | 0.198
51 | RRIRPRPPRLPRPRPRPKWYPRP | -0.161
52 | RRIRPRPPRLPRPRPRPKYQPRP | -0.411
53 | RRIRPRPPRLPRPRPRPLAFPRP | -0.0389
54 | RRIRPRPPRLPRPRPRPLAPPRP | 0.33
55 | RRIRPRPPRLPRPRPRPLDGPRP | 0.0208
56 | RRIRPRPPRLPRPRPRPLEEPRP | 0.215
57 | RRIRPRPPRLPRPRPRPLEQPRP | 0.169
58 | RRIRPRPPRLPRPRPRPLFGPRP | 0.142
59 | RRIRPRPPRLPRPRPRPLKEPRP | -0.228
60 | RRIRPRPPRLPRPRPRPLKRPRP | -0.161
61 | RRIRPRPPRLPRPRPRPLKTPRP | -0.000587
62 | RRIRPRPPRLPRPRPRPLNFPRP | -0.139
63 | RRIRPRPPRLPRPRPRPLQNPRP | -0.179
64 | RRIRPRPPRLPRPRPRPLQTPRP | 0.0208
65 | RRIRPRPPRLPRPRPRPLRTPRP | 0.831
66 | RRIRPRPPRLPRPRPRPLSFPRP | -0.132

Row | Sequence | shrunken log2 fold change
67 | RRIRPRPPRLPRPRPRPLVMPRP | 0.0377
68 | RRIRPRPPRLPRPRPRPLVTPRP | -0.302
69 | RRIRPRPPRLPRPRPRPLVWPRP | 0.412
70 | RRIRPRPPRLPRPRPRPLWQPRP | 0.0105
71 | RRIRPRPPRLPRPRPRPLYSPRP | -0.194
72 | RRIRPRPPRLPRPRPRPMAFPRP | 0.0207
73 | RRIRPRPPRLPRPRPRPMAIPRP | -0.0296
74 | RRIRPRPPRLPRPRPRPMANPRP | 1.35
75 | RRIRPRPPRLPRPRPRPMDAPRP | -0.128
76 | RRIRPRPPRLPRPRPRPMGPPRP | -0.248
77 | RRIRPRPPRLPRPRPRPMIAPRP | -0.0488
78 | RRIRPRPPRLPRPRPRPMKFPRP | -0.248
79 | RRIRPRPPRLPRPRPRPMKRPRP | 0.153
80 | RRIRPRPPRLPRPRPRPMKVPRP | -0.0686
81 | RRIRPRPPRLPRPRPRPMMHPRP | -0.0262
82 | RRIRPRPPRLPRPRPRPMNIPRP | -0.793
83 | RRIRPRPPRLPRPRPRPMNRPRP | -0.118
84 | RRIRPRPPRLPRPRPRPMPDPRP | 0.163
85 | RRIRPRPPRLPRPRPRPMPSPRP | -0.0976
86 | RRIRPRPPRLPRPRPRPMQEPRP | -0.0107
87 | RRIRPRPPRLPRPRPRPMRNPRP | 0.905
88 | RRIRPRPPRLPRPRPRPMRPPRP | 1.04

Row | Sequence | shrunken log2 fold change
89 | RRIRPRPPRLPRPRPRPMRRPRP | 0.537
90 | RRIRPRPPRLPRPRPRPMSYPRP | 0.296
91 | RRIRPRPPRLPRPRPRPMTRPRP | 0.0702
92 | RRIRPRPPRLPRPRPRPMWTPRP | 0.0739
93 | RRIRPRPPRLPRPRPRPMYGPRP | -0.182
94 | RRIRPRPPRLPRPRPRPMYYPRP | -0.631
95 | RRIRPRPPRLPRPRPRPNAQPRP | 0.0626
96 | RRIRPRPPRLPRPRPRPNDDPRP | -0.188
97 | RRIRPRPPRLPRPRPRPNEDPRP | -0.509
98 | RRIRPRPPRLPRPRPRPNEQPRP | 0.062
99 | RRIRPRPPRLPRPRPRPNFPPRP | 0.0652
100 | RRIRPRPPRLPRPRPRPNFTPRP | 0.0917
101 | RRIRPRPPRLPRPRPRPNFWPRP | 0.153
102 | RRIRPRPPRLPRPRPRPNGEPRP | 0.137
103 | RRIRPRPPRLPRPRPRPNHNPRP | -0.755
104 | RRIRPRPPRLPRPRPRPNLFPRP | 0.175
105 | RRIRPRPPRLPRPRPRPNMCPRP | -0.0958
106 | RRIRPRPPRLPRPRPRPNMIPRP | -0.531
107 | RRIRPRPPRLPRPRPRPNMKPRP | -0.52
108 | RRIRPRPPRLPRPRPRPNMLPRP | -0.367
109 | RRIRPRPPRLPRPRPRPNNVPRP | -0.22
